Target: T1, L-selectin LE-His (monomeric, lectin and EGF-like domains) (human, UniProt P14151 39-194)
T1 sequence: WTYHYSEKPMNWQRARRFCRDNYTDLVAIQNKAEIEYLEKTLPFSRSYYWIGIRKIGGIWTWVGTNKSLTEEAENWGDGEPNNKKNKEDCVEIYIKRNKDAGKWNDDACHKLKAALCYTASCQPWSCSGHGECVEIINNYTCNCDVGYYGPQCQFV
Assay: SPR (single cycle kinetics); 1 mM CaCl2; protein in cell culture supernatant; abstract gives ~12 nM; SPR: HBS-Ca (20 mM HEPES pH 7.5, 150 mM NaCl, 1 mM CaCl2), Biacore X100, temperature not stated; column: PBS with 0.9 mM CaCl2 and 0.5 mM MgCl2, room temperature
Settings: protein: recombinant; tags: C-terminal His; label: 5' biotin

B1: LD201mΔ1 (structured_DNA)
DNA: GCCAGTACAAGGTGCTAAACGTAATGGC
  Kd: 11.2 ± 0.8 nM

— publication PMC5336075, “Single-Step Purification of Monomeric l-Selectin via Aptamer Affinity Chromatography”
